Results on five substances are retold here after paper PMC6222095.

Usually stoichiometry N stands for a count of units in the complex or per binding partner. One may read the Kd as the equilibrium constant for the complex coming apart.

Test [1] concerns the target complement factor H, homozygous Tyr-402, homozygous or heterozygous at I62V (human) (UniProt P08603). As to the kind of experiment: AUC; sedimentation velocity, 20 °C, 50,000 and 60,000 rpm, HEPES buffer (10 mM HEPES, 137 mM NaCl, pH 7.4), five samples of each allotype at 0.5, 1.1 and 2.1 mg/ml; c(s) peak integration; dimer and trimer percentages at 1.1 mg/ml.
For test [2] the target is unchanged. As to the kind of experiment: SAXS; concentration dependence of Guinier I(0)/c at 0.4-3.3 mg/ml in HEPES buffer, two samples of each allotype; KD estimated assuming a monomer-dimer equilibrium (dimer to monomers).
Test [3] addresses complement factor H, double homozygous His-402/Val-62 allotype (human) (UniProt P08603). As to the kind of experiment: AUC; sedimentation velocity, 20 °C, 50,000 and 60,000 rpm, HEPES buffer (10 mM HEPES, 137 mM NaCl, pH 7.4), five samples of each allotype at 0.5, 1.1 and 2.1 mg/ml; c(s) peak integration; dimer and trimer percentages at 1.1 mg/ml.
The target is the same in test [4]. As to the kind of experiment: native MS; Q-ToF nanoflow, FH at about 4 mg/ml (3.9 mg/ml, 25.3 μM) in 140 mM ammonium acetate, pH 7.0; peak integration.
Test [5] has the same target. As to the kind of experiment: native MS; Q-ToF nanoflow, FH at about 4 mg/ml (4.4 or 3.6 mg/ml) in 1 M ammonium acetate, pH 7.0; peak integration.
For test [6] the target is unchanged. As to the kind of experiment: SPR; Biacore X100, 800 RU of full-length FH amine-coupled to a CM3 chip, FH allotypes flowed at 1.3-12.3 μM, 25 °C, HEPES buffer; estimated KD from steady-state 1:1 affinity fit of maximum responses; sensorgrams did not fit a 1:1 kinetic model.
Test [7] shares this target. As to the kind of experiment: SAXS; concentration dependence of Guinier I(0)/c at 0.4-3.3 mg/ml in HEPES buffer, two samples of each allotype; KD estimated assuming a monomer-dimer equilibrium (dimer to monomers).
Test [8] concerns the target recombinant FH SCR-6/8 His-402 (human). As to the kind of experiment: SPR; Biacore X100, 150 RU (His-402 also 400 RU) of SCR-6/8 amine-coupled to a CM4 chip, SCR-6/8 allotypes flowed at 5-40 μM, 25 °C, HEPES buffer with 0.3 mg/ml nonspecific binding reducer; steady-state fits. (Surface plasmon resonance follows binding to a sensor surface in real time, without labels.)
Test [9] deals with recombinant FH SCR-6/8 Tyr-402 (human). The description is as above.
Test [10] concerns the target complement factor H, homozygous Tyr-402/Val-62 allotype (human) (UniProt P08603). As to the kind of experiment: native MS; Q-ToF nanoflow, FH at about 4 mg/ml (3.9 mg/ml, 25.3 μM) in 140 mM ammonium acetate, pH 7.0; peak integration.
For test [11] the target is unchanged. As to the kind of experiment: native MS; Q-ToF nanoflow, FH at about 4 mg/ml (4.4 or 3.6 mg/ml) in 1 M ammonium acetate, pH 7.0; peak integration.
The target is the same in test [12]. As to the kind of experiment: SPR; Biacore X100, 800 RU of full-length FH amine-coupled to a CM3 chip, FH allotypes flowed at 1.3-12.3 μM, 25 °C, HEPES buffer; estimated KD from steady-state 1:1 affinity fit of maximum responses; sensorgrams did not fit a 1:1 kinetic model.

Where “and” joins values, the source holds several entries; their conditions need not be identical. Equal values may be shown once. Some results are limits rather than exact numbers.

Turning to “complement factor H, homozygous Tyr-402, homozygous or heterozygous at I62V (from UniProt P08603 19-1231) (natural protein)”, in test [1], the percent dimer was 4%, the percent oligomers (peaks 2-9) is 11.7%, the percent trimer is 2.1% and the stoichiometry N is under 9. The Kd in test [2] was 16 µM and 18 µM.

In test [3], “complement factor H, double homozygous His-402/Val-62 allotype (from UniProt P08603 19-1231) (natural protein)” came in with a percent dimer of 5.7%, a percent oligomers (peaks 2-9) of 12.8%, a percent trimer of 2.5% and a stoichiometry N of under 9. Further, in test [4], the percent dimer came out at 17%, the percent trimer was 6% and the stoichiometry N was under 3. In test [5], the percent dimer stood at 2% and the stoichiometry N was found to be 2. Besides, in test [6], the Kd is 6.7 µM. In addition, the Kd in [7] is 11 µM and 22 µM.

Turning to “recombinant FH SCR-6/8 His-402 (domain or fragment)”, the Kd in [8] and in [9] was over 40 µM throughout.

On to “recombinant FH SCR-6/8 Tyr-402 (domain or fragment)”, for which the Kd in test [8] and in test [9] was over 40 µM throughout.

Consider “complement factor H, homozygous Tyr-402/Val-62 allotype (from UniProt P08603 19-1231) (natural protein)”, for which, in test [10], the percent dimer was determined as 24%, the percent trimer was determined as 4% and the stoichiometry N is under 3. Besides, in test [11], the percent dimer turned out to be 10% and the stoichiometry N amounted to 2. Moreover, the Kd in test [12] was 8 µM.
